Test [1] addresses T1, human CD47 extracellular domain with C-terminal 6×His tag (human, UniProt Q08722 19-139, limits assumed).
T1 construct: extracellular domain; Made in Expi293F cells (section 5.4.1); also called recombinant CD47; huCD47
Kind of test: ELISA on human CD47. (An ELISA detects its analyte on a solid surface through an enzyme-linked reagent.)

The target in test [2] is T2, human EpCAM extracellular domain with C-terminal His tag (Novoprotein #C339) (human, UniProt P16422 24-265).
T2 construct: extracellular domain; Bought protein
T2 sequence (looked up): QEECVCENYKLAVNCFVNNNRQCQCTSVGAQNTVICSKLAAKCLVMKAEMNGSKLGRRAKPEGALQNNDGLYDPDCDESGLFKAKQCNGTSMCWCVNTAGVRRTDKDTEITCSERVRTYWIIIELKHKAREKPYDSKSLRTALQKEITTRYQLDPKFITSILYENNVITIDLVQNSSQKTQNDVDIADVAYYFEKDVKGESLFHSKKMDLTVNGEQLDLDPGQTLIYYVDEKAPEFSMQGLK
The test is described as follows: assay not given; ranks EpCAM affinity among Bi-1, Bi-2 and Bi-8.

Test [3] deals with T1, human CD47 extracellular domain with …. The test is described as follows: ELISA on human CD47; EC50 given as a bin, limits from the table's legend; lower limit of bin A.
Description: (§1) A 96-well plate was coated overnight at 4° C. with 1 μg/ml recombinant CD47. After washing 3 times, the plate was blocked with 300 μl 1% BSA in PBST at 37° C. for 1 hour. Serially diluted antibodies were added and incubated at 37° C. for 1 hour. […] The plate was washed again 4 times with PBST, incubated with 3,3′,5,5′-tetramethylbenzidine (TMB) substrate for 15 min at room temperature, terminated with 1N HCl, and then read at 450 nm.
Test [4] shares this target. Kind of test: ELISA on human CD47; EC50 given as a bin, limits from the table's legend; upper limit of bin A.
Description: as §1
The target of test [5] is T3, CD47 expressed on human red blood cells (human, UniProt Q08722 19-323).
T3 construct: whole, on cells; also called RBCs; RBC
Kind of test: flow cytometry on human red blood cells. In general terms: Flow cytometry measures light scatter and fluorescence of single cells or particles in a stream.
Description: The RBC binding assay was performed by spinning down fresh human whole blood at 200 g for 10 minutes. Collected RBCs were washed twice with PBS and counted using flow cytometry. 1×10⁶ cells were dispensed into each well of a 96 well culture plate. Serially diluted anti-CD47 antibodies were added and incubated for 1 hour at 4° C. Cells were washed with FACS buffer (PBS+2% FBS) twice. […] Cells were washed twice and resuspended in 200 μl of FACS buffer and analyzed by flow cytometry.

Test [6] has as its target T1, human CD47 extracellular domain with …. Kind of test: ELISA on human CD47; EC50 given as a bin, limits from the table's legend; lower limit of bin B.
Description: as §1
The target is the same in test [7]. The test is described as follows: ELISA on human CD47; EC50 given as a bin, limits from the table's legend; upper limit of bin B.
Description: as §1
The target is the same in test [8]. Kind of test: ELISA on human CD47; EC50 given as a bin, limits from the table's legend; lower limit of bin C.
Description: as §1
The target is the same in test [9]. Kind of test: ELISA on human CD47; EC50 given as a bin, limits from the table's legend; upper limit of bin C.
Description: as §1

Bounds are passed on as bounds.

B1: Bi-8 (3C-KIH EpCAM × CD47 scFv bispecific antibody) (bispecific antibody)
chain: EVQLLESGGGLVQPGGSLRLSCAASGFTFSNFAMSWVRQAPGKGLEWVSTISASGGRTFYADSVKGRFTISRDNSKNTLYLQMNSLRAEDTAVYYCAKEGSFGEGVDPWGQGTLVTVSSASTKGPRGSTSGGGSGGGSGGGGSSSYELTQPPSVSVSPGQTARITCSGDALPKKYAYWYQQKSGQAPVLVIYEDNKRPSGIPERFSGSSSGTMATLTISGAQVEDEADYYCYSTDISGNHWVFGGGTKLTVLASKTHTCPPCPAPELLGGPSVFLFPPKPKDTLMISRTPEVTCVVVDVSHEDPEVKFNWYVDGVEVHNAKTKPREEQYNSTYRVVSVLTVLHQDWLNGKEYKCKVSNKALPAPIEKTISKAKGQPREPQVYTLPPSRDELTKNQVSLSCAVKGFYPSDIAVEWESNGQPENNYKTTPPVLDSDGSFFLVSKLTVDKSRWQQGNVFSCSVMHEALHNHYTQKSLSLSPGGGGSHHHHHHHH
heavy: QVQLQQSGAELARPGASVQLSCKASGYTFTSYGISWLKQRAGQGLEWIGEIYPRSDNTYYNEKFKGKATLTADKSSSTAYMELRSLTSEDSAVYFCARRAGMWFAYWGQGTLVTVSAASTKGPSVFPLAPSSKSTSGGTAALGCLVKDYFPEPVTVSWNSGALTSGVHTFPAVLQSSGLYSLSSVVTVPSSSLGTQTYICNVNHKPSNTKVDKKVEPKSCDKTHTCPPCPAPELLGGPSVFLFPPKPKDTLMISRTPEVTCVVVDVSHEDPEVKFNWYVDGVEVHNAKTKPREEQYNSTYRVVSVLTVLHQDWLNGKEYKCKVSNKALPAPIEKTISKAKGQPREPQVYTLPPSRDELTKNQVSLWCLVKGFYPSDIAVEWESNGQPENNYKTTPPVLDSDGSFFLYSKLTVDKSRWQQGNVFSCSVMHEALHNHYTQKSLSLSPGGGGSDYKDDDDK
VL: EIVLTQSPAITAASLGQKVTITCSASSSVSDMHWYQQKSGTSPKPWIYEISKLASGVPTRFSGSGSGTSYSLTISSMEAEDAAIYYCQHWSYPLMTFGGGTKLEIK
notes: Three-chain knob-into-hole format
B1: the binding result in test [1] and in test [2] was “binds” in each case.

B2: VIR47 hIgG1 (antibody)
heavy: not shown
light: SYEMTQPPSVSVSPGQTARITCSGDALPKKYAYWYQQKSGQAPVLVIYEDNKRPSGIPERFSGSSSGTMATLTISGAQVEDEADYYCYSTDISGNHWVFGGGTELTVLGQPKAAPSVTLFPPSSEELQANKATLVCLISDFYPGAVTVAWKADSSPVKAGVETTTPSKQSNNKYAASSYLSLTPEQWKSHRSYSCQVTHEGSTVEKTVAPTECS
notes: also called VIR47 IgG1; IgG1 form of VIR47
A word on the EC50: it is the midpoint of the concentration-response curve. A high value points to lower potency in that assay. As for B2, the EC50 in [3] was at least 0.01 nM; in [4] it was at most 0.15 nM. Besides, the “fold higher concentration required for RBC binding, against CD47 BMK-1” value in [5] is over 20 fold.

B3: VIR47 IgG1 HC G100aA (antibody, V domains shown)
VH: EVQLLESGGGLVQPGGSLRLSCAASGFTFSNFAMSWVRQAPGKGLEWVSTISASGGRTFYADSVKGRITISRDNSKNTLFLQMNGLRAEDTAVYYCAKEGSFGEAVDPWGQGTLVTVSS
VL: SYEMTQPPSVSVSPGQTARITCSGDALPKKYAYWYQQKSGQAPVLVIYEDNKRPSGIPERFSGSSSGTMATLTISGAQVEDEADYYCYSTDISGNHWVFGGGTELTVLG
notes: Alanine-scan variant of the IgG1 form of VIR47; position in Kabat-style numbering, not the linear count on the entry
For the molecule B3, the EC50 in test [6] was at least 0.15 nM; in [7], at most 0.4 nM.

B4: VIR47 IgG1 HC F98A (antibody, V domains shown)
VH: EVQLLESGGGLVQPGGSLRLSCAASGFTFSNFAMSWVRQAPGKGLEWVSTISASGGRTFYADSVKGRITISRDNSKNTLFLQMNGLRAEDTAVYYCAKEGSAGEGVDPWGQGTLVTVSS
VL: SYEMTQPPSVSVSPGQTARITCSGDALPKKYAYWYQQKSGQAPVLVIYEDNKRPSGIPERFSGSSSGTMATLTISGAQVEDEADYYCYSTDISGNHWVFGGGTELTVLG
notes: as for B3
As for B4, the 50% effective concentration (EC50) was at least 0.4 nM in [8] and at most 5 nM in test [9].

B5: VIR47 IgG1 HC G99A (antibody, V domains shown)
VH: EVQLLESGGGLVQPGGSLRLSCAASGFTFSNFAMSWVRQAPGKGLEWVSTISASGGRTFYADSVKGRITISRDNSKNTLFLQMNGLRAEDTAVYYCAKEGSFAEGVDPWGQGTLVTVSS
VL: SYEMTQPPSVSVSPGQTARITCSGDALPKKYAYWYQQKSGQAPVLVIYEDNKRPSGIPERFSGSSSGTMATLTISGAQVEDEADYYCYSTDISGNHWVFGGGTELTVLG
notes: as for B3
Consider B5, for which the concentration giving a half-maximal response (EC50) in test [6] was at least 0.15 nM; in [7] it was at most 0.4 nM.

The record behind these values is patent publication US20230159663A1 (VIRTUOSO BINCO, published 2023).
